Laboratory results from patent US20190225705A1 (Bayer, published 2019).
Each block holds one binder with its values, some of them ahead of it.

What was measured:
[1] = biological target: T1, human coagulation factor XI (human, UniProt P03951 19-625); experiment: ELISA on coated human FXI
T1 construct: Bought protein; also called FXI; fXI
Procedure: (§1) A standard ELISA format was used for analyzing the binding affinity of antibodies of this invention to FXI. Human FXI was obtained from Haematologic Technologies Inc. (human FXI; Cat. No. HCXI-0150), baboon FXI was generated as described below. These antigens were coated to black 384 well Maxisorp microtitter plates (Nunc; Cat. No: 460518), diluted to a concentration of 1 μg/ml in 1× Coating Buffer (Candor Bioscience; Cat. No. 121125). Plates were incubated overnight at 4° C. After ovemight incubation, plates were washed 2× with 50 μl/well using Phosphate Buffered Saline (PBS, SigmaAldrich, Cat. No. D8662)+0.05% Tween 20 (SigmaAldrich, Cat. No. P9416). Following this, 50 μl/well of blocking buffer (Smart Block; Candor Bioscience; Cat. No. 113500) was added and the plates incubated for 1 hour at room temperature. Afterwards, plates were washed for 3× using 50 μl/well of a PBS+0.05% Tween 20 buffer. Antibodies of this invention were added at different concentrations in a final volume of 30 μl/well. Plates were incubated for 1 hour at room temperature. Following this incubation step, plates were washed for 3× using 50 μl/well of a PBS+0.05% Tween 20 buffer. For the detection of bound candidate antibodies, the anti-h-Fc-POD antibody (Sigma; Cat. No. A0170) was diluted by the factor of 1:10000 in 10% Blocking Buffer. […]

[2] = biological target: T1, human coagulation factor XI; experiment: competitive ELISA on coated FXI, competitor biotinylated 1A6
[3] = biological target: T1, human coagulation factor XI; experiment: ELISA on coated human FXI, anti-h-Fc-POD detection
Procedure: as §1

binding result [1]: binds
B1: humanized and germlined anti-FXI antibody TPP-3290 (antibody, human IgG1, kappa, V domains shown)
VH: EVTLRESGPALVKPTQTLTLTCTFSGFSLSTSGMGVSWIRQPPGKALEWLAHIDWDDDKYYSTSLKSRLTISKDTSKNQVVLTMTNMDPVDTATYYCARIRSSVYAHYYGMDYWGQGTTVTVSS
VL: DIVMTQSPDSLAVSLGERATISCKASQSVLYSGDNYLNWYQQKPGQPPKLLIYAASTLESGIPDRFSGSGSGTDFTLTISSLQAEDVAVYYCQQYNGTPWTFGGGTKVEIKR
notes: IgG expressed in HEK293-6E cells; also called TTP3290

binding result [2]: binds
B2: humanized and germlined anti-FXI antibody TPP-3583 (antibody, human IgG1, kappa, V domains shown)
VH: EVTLRESGPALVKPTQTLTLTCTFSGFSLSTSGMGVGWIRQPPGKALEWLAHIDWDDDKYYSPSLKSRLTISKDTSKNQVVLTMTNMDPVDTATYYCARIRSSVYAHYYGMDYWGQGTTVTVSS
VL: DIVMTQSPDSLAVSLGERATISCKASQSVLYSGDNYLNWYQQKPGQPPKLLIYAASTLESGIPDRFSGSGSGTDFTLTISSLQAEDVAVYYCQQYNGDPWTFGGGTKVEIKR
notes: also called TTP-3583

binding result [3]: binds
B3: humanized and germlined anti-FXI antibody TPP-3238 (antibody, human IgG1, kappa, V domains shown)
VH: EVTLRESGPALVKPTQTLTLTCTFSGFSLSTSGMGVSWIRQPPGKALEWLAHIDWDDDKYYSTSLKSRLTISKDTSKNQVVLTMTNMDPVDTATYYCARIRSSVYYYYYGMDVWGQGTTVTVSS
VL: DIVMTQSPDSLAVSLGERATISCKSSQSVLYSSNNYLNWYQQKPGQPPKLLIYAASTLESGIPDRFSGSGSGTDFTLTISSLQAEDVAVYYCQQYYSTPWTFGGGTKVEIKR
notes: IgG expressed in HEK293-6E cells
